From PMC2173940 come the findings set out here.

One assay addresses soluble FcγRIIb (UniProt P31994). Put plainly: SPR; BIAcore 2000; FcγRIIa, FcγRIIb or FcγRIIIa amine-coupled to CM5 (8000-10000 RU); IgG1-4, with or without EndoS treatment, injected, typically 10-1.25 µg/ml, 35 µl/min, 25°C; 10 mM HEPES pH 7.5, 150 mM NaCl, 0.005% P20, 3.4 mM EDTA; 1:1 Langmuir fit; empty flow cell as reference.
In a further assay the target is soluble FcγRIIa (UniProt P12318). The assay is described as above.
Chain of UniProt P12318 (P12318 34-217): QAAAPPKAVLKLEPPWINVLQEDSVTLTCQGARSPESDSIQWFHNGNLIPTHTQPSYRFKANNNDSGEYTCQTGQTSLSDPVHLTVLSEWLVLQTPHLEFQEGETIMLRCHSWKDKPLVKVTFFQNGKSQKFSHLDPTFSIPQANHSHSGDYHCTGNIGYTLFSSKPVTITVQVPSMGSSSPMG
A further assay deals with human IgG1 (human). Put plainly: SPR; BIAcore 2000; IgG1-4 or deglycosylated IgG1-4 amine-coupled to CM5 (8000-10000 RU); EndoS or EndoS(E235Q) injected, typically 10-1.25 µg/ml, 35 µl/min, 25°C; 10 mM HEPES pH 7.5, 150 mM NaCl, 0.005% P20, 3.4 mM EDTA; 1:1 Langmuir fit; deglycosylated IgG flow cells as reference.
A further assay deals with human IgG2 (human). Described as above.
In the next assay the target is human IgG4 (human). Described as above.
For the next assay, the target named is human IgG3 (human). The assay is described as above.

Chain of UniProt P31994 (P31994 43-217): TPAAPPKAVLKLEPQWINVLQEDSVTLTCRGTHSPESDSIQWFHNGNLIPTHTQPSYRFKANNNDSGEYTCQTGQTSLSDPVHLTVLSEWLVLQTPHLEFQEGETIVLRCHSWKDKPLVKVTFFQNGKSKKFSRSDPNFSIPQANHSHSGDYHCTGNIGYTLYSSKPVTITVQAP

In the assay with soluble FcγRIIb, human IgG4 (antibody) had a Kd of 200 nM, a koff of 0.0069 s⁻¹ and a kon of 34000 M⁻¹ s⁻¹.

Molecule human IgG1 (antibody) showed a Kd in the assay with soluble FcγRIIa of 97 nM.

B1: EndoS(E235Q), inactive form of EndoS (enzyme)
chain: EEKTVQVQKGLPSIDSLHYLSENSKKEFKEELSKAGQESQKVKEILAKAQQADKQAQELAKMKIPEKIPMKPLHGSLYGGYFRTWHDKTSDPTEKDKVNSMGELPKEVDLAFIFHDWTKDYSLFWKELATKHVPKLNKQGTRVIRTIPWRFLAGGDNSGIAEDTSKYPNTPEGNKALAKAIVDEYVYKYNLDGLDVDVQHDSIPKVDKKEDTAGVERSIQVFEEIGKLIGPKGVDKSRLFIMDSTYMADKNPLIERGAPYINLLLVQVYGSQGEKGGWEPVSNRPEKTMEERWQGYSKYIRPEQYMIGFSFYEENAQEGNLWYDINSRKDEDKANGINTDITGTRAERYARWQPKTGGVKGGIFSYAIDRDGVAHQPKKYAKQKEFKDATDNIFHSDYSVSKALKTVMLKDKSYDLIDEKDFPDKALREAVMAQVGTRKGDLERFNGTLRLDNPAIQSLEGLNKFKKLAQLDLIGLSRITKLDRSVLPANMKPGKDTLETVLETYKKDNKEEPATIPPVSLKVSGLTGLKELDLSGFDRETLAGLDAATLTSLEKVDISGNKLDLAPGTENRQIFDTMLSTISNHVGSNEQTVKFDKQKPTGHYPDTYGKTSLRLPVANEKVDLQSQLLFGTVTNQGTLINSEADYKAYQNHKIAGRSFVDSNYHYNNFKVSYENYTVKVTDSTLGTTTDKTLATDKEETYKVDFFSPADKTKAVHTAKVIVGDEKTMMVNLAEGATVIGGSADPVNARKVFDGQLGSETDNISLGWDSKQSIIFKLKEDGLIKHWRFFNDSARNPETTNKPIQEASLQIFNIKDYNLDNLLENPNKFDDEKYWITVDTYSAQGERATAFSNTLNNITSKYWRVVFDTKGDRYSSPVVPELQILGYPLPNADTIMKTVTTAKELSQQKDKFSQKMLDELKIKEMALETSLNSKIFDVTAINANAGVLKDCIEKRQLLKK
Regarding B1, the Kd in the assay with human IgG1 (human) is 420 nM; with human IgG2 (human), 210 nM; with human IgG4 (human) it was 140 nM; with human IgG3 (human) it was 83 nM. The koff turned out to be 0.0176 s⁻¹ with human IgG1 (human), 0.0025 s⁻¹ in the assay with human IgG2 (human), 0.002 s⁻¹ with human IgG4 (human) and 0.0089 s⁻¹ in the assay with human IgG3 (human). Further, the kon in the assay with human IgG1 (human) was 42000 M⁻¹ s⁻¹; with human IgG2 (human) it was 12000 M⁻¹ s⁻¹; with human IgG4 (human) it was 15000 M⁻¹ s⁻¹; in the assay with human IgG3 (human), 107000 M⁻¹ s⁻¹.
